In patent US20260069689A1 (Regeneron, published 2026):
Substitutions are numbered along the chain they refer to. Several values for one entry are separate records, joined by “and”; a condition that tells them apart may be missing. Identical values can stand only once.

B1: mAb14235 (antibody, V domains shown)
VH: QITLKESGPTLVKPTQTLTLTCTFSGFSLNTGGVGVGWIRQPPGNALEWLALIYWDDDKRYNPSLKTRLTISKDTSKNQVVLTMTNMDPVDTATYFCAHLTIAVIVDFWGQGTLVTVSS
VL: QSALTQPASVSGSPGQSITISCTATSSDVGTYNYVSWFQHHPGKAPKLMIYEVTNRPSGVSNRFSGSKSGNTASLTISGLQAEDEADYYCSSYTTTSIVFGGGTKLTVLG
B2: mAb14257 (antibody, V domains shown)
VH: EVQLVESGGGLVQPGGSLRLSCAASGFTVSRSYMNWVRQAPGKGLEWVSVVFTGGTTKHTDSVKGRFTISRDNSMNTLYLQMNSLRPEDTAVYYCARVAIVETTGAFDIWGQGTMVTVSS
VL: QSVLTQPPSVSGAPGQRVTISCTGTSSNIGADFDVHWYQQFPGTAPKLLIYGHTNRPSGIPDRFSGSKSGTSASLAITGLQAEDEADYYCQSYDSSLSGSVVFGGGTKLTVLG
B3: mAb14232 (antibody, V domains shown)
VH: QITLKESGPTLVKPTQTLTLTCTFSGFSLSASGVGVGWIRQPPGKALEWLALIYWDDDKRYSPSLKSRLTITKDTSKNQVVLTMTNMDPVDTATYYCAQHKVATIFDYWGQGTLVTVSS
VL: QSALTQPPSASGSPGQSVTISCTATSSDVGNYNYVSWYQQHPGKAPKLMIYEVTKRPSGVPDRFSGSKSGNTASLTVSGLQAEDEADYYCSSYAGSWGVFGGGTKLTVLG
B4: mAb14284 (antibody, V domains shown)
VH: B3 VH with L29F, A31T, A46T, Y96F, Q99H, K101G, V102I, A103P, D107G, T113A
VL: B1 VL with A24G, V29L, T31V, Y32F, F38Y, H40Q, T96S, I98T
B5: mAb14247 (antibody, V domains shown)
VH: B3 VH with A31T, G33A, V80L, M87V, Q99H, K101T, V102I, A103Q, T104L
VL: QSALTQPASVSGSPGQSITISCTATSSDVGNYNYVSWYQQHPGKAPKLMIYEVSNRPSGVSNRFSGSKSGNTASLTISGLQAEDEADYYCSSYTSSSTPLVFGGGTKLTVLG
B6: mAb14234 (antibody, V domains shown)
VH: QVQLVESGGGVVQPGRSLRLSCAASGFTFSSYGIHWVRQAPGKGLEWVAIIWYDGSEKYYADSVKGRFTISRDNSKNTLFLQMNSLEAEDTAVYYCARGPDLLTGYYNYFYYGMDVWGQGTTVTVSS
VL: QSVLTQPPSVSGAPGQRVTISCTGSSSNIGIGYDVHWYQQLPGTVPKLLIYGNTNRPSGVPDRFSGSKSGTSASLAITGLQAEDEADYYCQSYDSSLSSYVFGTGTKVTVLG
B7: mAb14230 (antibody, V domains shown)
VH: EVQLVESGGGLIQPGRSLRLSCAASGFTFDDYAMHWVRQAPGKGLEWVSGISWNSVSIDYADSVKGRFTISRDNAKNSLYLQMTSLTVEDTALYYCAKAFGYETLTGSDYFAYWGPGTLVTVSS
VL: EIVLTQSPGTLSLSPGERATLSCRASQTVISTYLAWYQQKPGQSPRLLIYGASSRATGIPDRFSGSGSGTDFTLTISRLEPEDFAVYYCQQYGSSPQLTFGGGTKVEIKR
B8: mAb14282 (antibody, V domains shown)
VH: QVQLVQSGAEVKKPGASVKVSCKASGYIFTDHYMHWVRQAPGQGLEWMGWINPNSGATNYAQNFQGRVTMTRDTSIITVYMELSRLRSDDTAVYYCARDSSPYMIRYTMDVWGQGTTITVSS
VL: QSALTQPASVSGSPGQSITISCTGTSSDVGSYNLVSWYQQHPGKAPKLMIYELTKRPSGVSNRFSGSKSGNTASLTISGLQAEDEADYYCSSYRGSVTDVVFGGGTKLTVLG
B9: mAb14280 (antibody, V domains shown)
VH: QVQLVQSGAEVKKPGASVRVSCKASGYTFTGNYIHWVRQAPGQGLEWMAWINPNSGGKNYAQKFQGRVTLTRDTSVNTAYMELSRLRSDDTAMYYCARDVNYNILTGPGGLWGQGTLVTVSS
VL: QSALTQPPSASGSPGQSVTISCTGTSSDVGGYNFVSWYQQHPGKAPKLMIYEVSKRPSGVPDRFSGSKSGNTASLTVSGLQAEDEADYYCSSYAGSNNFVFGTGTKVTVLG
B10: mAb14283 (antibody, V domains shown)
VH: QVQLQESGPGLVKPSGTLSLTCDVSGGSISSNNWWSWVRQRPGKGLQWIGEIYHNENTNYNPSLKSRVIMSIDKSKNQFSLKLTSVTAADTAVYYCARGDVLDWFDPWGQGTLVTVSS
VL: QSALTQPASVSGSPGQSTTISCTGTSSDVGGYNYVSWYQQYPGKAPKLMIYDVTNRPSGVSHRFSGSKSGNTASLTISGLQAEDEADYYCSSYTSSSTVIFGGGTKLTVLG
B11: mAb13458 (antibody, V domains shown)
VH: EVQLVESGGGLVQPGRSLRLSCAASGFTFDDYAMHWVRQAPGKGLEWVSGISWNSGSIGYADSVKGRFTISRDNAKNSLYLQMNSLRAEDTALYYCAKDIGITTPYWGQGTLVTVSS
VL: AIQMTQSPSSLSASVGDRVTITCRASQDIRNDLGWYQQKPGKAPKLLIYSASSLQTGVPSRFSGSGSGTDFTLTISSLHPEDFATYYCLQDYWYTWTFGQGTKVEIKR
B12: mAb13459 (antibody, V domains shown)
VH: B11 VH
VL: B11 VL with W93N, T95V
B13: mAb14255 (antibody, V domains shown)
VH: QVQLQESGPGLVKPSETLSLTCTVSGGSISGYYWSWIRQPPGKGLDWIGYIYYRGNTNYNPSLKSRVTISVDTSNNQFSLKLSSVTAADTAVYYCARYGEGYGDASGYHFDYWGQGTLVTVSS
VL: QSALTQPASVSGSPGQSITISCTGTSSDVGSYNLVSWYQQHPGKAPKLMIYEDSKRPSGVANPFSGSKSGNTASLTISGLQAEDEADYYCSSYAGSSTWVFGGGTKLTVLG
B14: mAb14285 (antibody, V domains shown)
VH: QVQLVQSGAEVKKPGASVKVSCKASGYTFTGYFIHWVRQAPGQGLEWMGWISPISGGTNYAQKFQGRVTVTRDTSITTAYMELSRLTSDDTAVYHCAREGGTWKGDFDYWGQGTLVTVSS
VL: B13 VL with G30E, D53G, A61S, P63R
B15: mAb14281 (antibody, V domains shown)
VH: QVQLVQSGADVKKPGASVKVSCKTSGYIFTGYYIHWVRQAPGQGLEWMGWINPNSGGTNSAQKFQGRVTMTRDTSISTVYMELSRLRSDDTAVYYCAKSNSFSVLDYNFDYWGQGTLVTVSS
VL: SSELTQDPAVSVALGQTVRITCQGDSLRSYYASWYQQKPGQAPVLVIYDKNNRPSGIPDRFSGSSSGNTASLTITGAQAEDEADYYCNSRDSSRNHLVVFGGGTKLTVLG
B16: mAb14256 (antibody, V domains shown)
VH: QVQLQESGPGLVKPSETLSLTCTVSGGSISSHYWSWIRQPPGKGLEWIGYIYYSGSSNYNPSLKSRVTISVDTSKNQFSLKLNSVTAADTAVYYCARHYDILTGFDWFDPWGQGTLVTVSS
VL: QSVLTQPPSVSGAPGQRVTISCTGSSSNIGTHYDVHWYQQLPGTAPKLLIYGNSNRPSGVPDRFSGSKSGTSASLAITGLQAEDEADYYCQSFDNSLTAPYVFGTGTKVTVLG
B17: mAb14258 (antibody, V domains shown)
VH: QLQLQESGPGLVKPSETLSLICTGSGDSISSSHYYWGWIRQPPGKGLEWIGSTYFSGSTYYNPSLKSRVSISVDTSKNQVSLKLISVTAADTAVYYCAREMGATLGDYWGPGTLVTVSS
VL: QSVLTQPPSASGTPGQRVTISCSGSSSNIGNNYVYWYQQFPGTTPRLLIYRNNERPSGVPDRFSGSKSGTSASLVISGLRSEDEADYYCAAWDDSLSAHYVFGTGTKVTVLG

Experiments:
[1] = target: SARS-CoV-2 RBD.mmh (Spike amino acids Arg319-Phe541 with C-terminal myc-myc-6-Histidine tag) (SARS-CoV-2, UniProt P0DTC2 319-541)
[2] = target: T1, SARS-COV-2 RBD-MMH (SARS-COV-2 RBD extracellular domain with C-terminal myc-myc-hexahistidine tag) (SARS-CoV-2)
[3] = target: T1, SARS-COV-2 RBD-MMH (SARS-COV-2 RBD …); assay: SPR 37C, mAb captured, pH 7.4 vs pH 6.0

Binder	IC50 [1]	koff [2]	t½ at pH 6.0 [2]	t½ at pH 7.4 [2]	t½ Ratio of pH 7.4 to pH 6.0 [3]
B1	0.234 nM	0.00114 s⁻¹	10.1 min	7.8 min	0.8
B2	0.365 nM	0.00842 s⁻¹	1.4 min	1.5 min	1.1
B3	18 nM	0.0124 s⁻¹	0.9 min	0.4 min	0.4
B4	0.367 nM	0.000574 s⁻¹	20.1 min	18.5 min	0.9
B5	0.446 nM	0.00167 s⁻¹	6.9 min	7.3 min	1.1
B6	4.62 nM	0.00143 s⁻¹	8.1 min	5.2 min	0.6
B7	9.97 nM	0.00797 s⁻¹	1.4 min	1.5 min	1.1
B8	0.502 nM	0.00985 s⁻¹	1.2 min	0.9 min	0.8
B9	1.74 nM	0.019 s⁻¹	0.6 min	0.5 min	0.8
B10	0.373 nM	0.002 s⁻¹	5.8 min	6.9 min	1.2
B11	0.873 nM	0.00199 s⁻¹	5.8 min	7.2 min	1.2
B12	4.43 nM	0.00229 s⁻¹ and 0.00239 s⁻¹	4.8 min	5.1 min	1.1
B13	0.157 nM	0.00513 s⁻¹	2.3 min	2.3 min	1
B14	1.7 nM	0.0144 s⁻¹	0.8 min	0.4 min	0.5
B15	0.397 nM	0.00734 s⁻¹	1.6 min	1.8 min	1.1
B16	0.48 nM	0.00955 s⁻¹	1.2 min	1 min	0.8
B17	0.121 nM		21.1 min	5.4 min	0.3
